Substitutions are numbered along the chain they refer to.
What was measured:
[1] = biological target: T1, EGFRvIII expressed on cells (CHO^EGFRvIII, F98^EGFRvIII) (UniProt P00533 25-1210); assay: cell-based or functional assay
T1 construct: whole, on cells; the vIII deletion must be applied; also called deletion mutant EGFRvIII

[2] = biological target: T2, EGFRvIII-Fc fusion antigen (human, UniProt P00533 25-645); assay: ELISA on coated EGFRvIII-Fc; TandAb detected with Protein L-HRP, Abs(450nm) [EGFRvIII binding]
[3] = biological target: T1, EGFRvIII expressed on cells …; assay: flow cytometry on F98^EGFRvIII cells; scFv detected with anti-His followed by FITC-conj. goat anti-mouse IgG, mean fluorescence intensity
[4] = biological target: T2, EGFRvIII-Fc fusion antigen; assay: SPR Biacore T200, EGFRvIII-Fc captured via anti-hu Fc, scFv analyte, 1:1 model;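 further: Multi-cycle kinetics on a CM5 chip in HBS-P+ running buffer, 180 s scFv association then 540 s dissociation, with blank flow cell signals subtracted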
Procedure: Anti-hu Fc IgG CM5-chip was prepared by covalent amine coupling by using the Amine-Coupling-Kit (GE), according to the instructions of the manufacturer. The IgG was diluted in the provided immobilization buffer (10 mM sodium acetate, pH 5.0) to a concentration of 25 μg/ml. For the coupling procedure, the predefined method “Amine” of the Biacore T200 control software was applied. A target level between 5000-10000 RU for all 4 flow cells was reached. The surface of the chip was activated with EDC/NHS before injecting the recombinant protein solutions. Free binding sites on the surface were blocked with ethanolamine. 1×HBS-P+ was selected as a running buffer for the entire coupling procedure.
Flowcell 1 and 3 were blanks. 1×HBS-P+ was used as running buffer for the entire procedure. The scFv antibodies were injected at a flow rate of 30 μL/min for 180 sec over all four flowcells. Signals measured in the flowcell 1 without captured antigen were subtracted from signals in the flowcell 2 to correct the binding curves for background binding. Signals measured in the flowcell 3 without captured antigen were subtracted from signals in the flowcell 4 to correct the binding curves for background binding. After 540 sec dissociation time the chip was regenerated as described below.
The Kinetics of scFv antibodies were determined in MCK (Multi Cycle Kinetic) measurements. For estimation of apparent binding affinities the binding curves were evaluated using the “Kinetic” method included in the Biacore evaluation software. By this method the binding curves are globally fitted by the software using the “Langmuir 1:1 interaction model”.

[5] = biological target: T3, wild type EGFR expressed on cells (CHO^EGFR, F98^EGFR) (human, UniProt P00533 25-1210); assay: flow cytometry on F98^EGFR cells; scFv detected with anti-His followed by FITC-conj. goat anti-mouse IgG
T3 construct: whole, on cells; also called native EGFR; EGFRwt
Procedure: After a second washing cycle, the cells were incubated with 0.1 mL of 15 μg/mL FITC-conjugated goat anti-mouse IgG antibodies under the same conditions as before. As a control, cells were incubated with the anti-His IgG 13/45/31 followed by the FITC-conjugated goat anti-mouse IgG antibodies without scFvs. The cells were then washed again and resuspended in 0.2 mL of FACS buffer containing 2 μg/mL propidium iodide in order to exclude dead cells. The fluorescence of 1×10⁴ living cells was measured using a Beckman-Coulter FC500 MPL flow cytometer using the MXP software (Beckman-Coulter, Krefeld, Germany) or a Millipore Guava EasyCyte flow cytometer using the Incyte software (Merck Millipore, Schwalbach, Germany). Mean fluorescence intensities of the cell samples were calculated using CXP software (Beckman-Coulter, Krefeld, Germany) or Incyte software (Merck Millipore, Schwalbach, Germany).
In case of analysis with Beckman-Coulter FC500 MPL flow cytometer 0.5×10⁶ cells/staining and in case of Millipore Guava EasyCyte flow cytometer only 0.25×10⁶ cells/staining were used.

B1: EGFRvIII/CD3 tandem diabody with parental EGFRvIII binding domain Li3G30 and CD3 domain v64, domain order (i) VL^CD3-VH^EGFRvIII-VL^EGFRvIII-VH^CD3 … (bispecific antibody, part only; not given: CD3 v64 domain and linkers, not shown: small tags and cut ends)
chain, part: EVQLVQSGAEVKKPGESLKISCKGSGYSFTSYWIGWVRQMPGKGLEWMGIIYPGDSDTRYSPSFQGQVTISADKSISTAYLQWSSLKASDTAMYYCARLGSSWTNDAFDIWGQGTMVTVSSSYELTQPPSVSVSPGQTARITCSGDALPKQYAYWYQQKPGQAPVLVIYKDSERPSGIPERFSGSSSGTTVTLTISGVQAEDEADYYCQSADSSGTPLIVFGTGTKLTVL
B1 was tested, and the EC50 in the cytotoxicity assay (CHO^EGFRvIII target cells) [1] was 0.025 nM.

B2: TandAb EGFRvIII(ABC479)/CD3, domain order (iv) VH^EGFRvIII-VL^CD3-VH^CD3-VL^EGFRvIII (bispecific antibody, part only; not given: CD3 domain and linkers, part only)
tandem diabody polypeptide (homodimer), part: QSGAEVKKPGEVQLVESLKISCKGSGYDFSSYWIGWVRQMPGKGLEWMGIIYPGDSDTIYSPSFQGQVTISADKSISTAYLQWSSLKASDTAMYYCARLGSSWTNDAFDIWGQGTLVTVSSSYELTQPPSVSVSPGQTARITCSGAALPEQYAYWYQQKPGQAPVLVIYKDSERPSGIPERFSGSSSGTTVTLTISGVQAEDEADYYCQSVDSSGTFYVFGGGTKLTVL
Binder B2 has an EC50 (read off the curve) [2] of 0.9 nM.

B3: scFv 469 (scFv, V domains shown)
VH: EVQLVQSGAEVKKPGESLKISCKGSGYSFNSYWIGWVRQMPGKGLEWMGIIYPGDSDTRYSPSFQGQVTISADKSISTAYLQWSSLKASDTAMYYCARLGSSWTNDAFDIWGQGTLVTVSS
VL: SYELTQPPSVSVSPGQTARITCSGDTLPKQYAYWYQQKPGQAPVLVIYKDSERPSGIPERFSGSSSGTTVTLTISGVQAEDEADYYCQSVDVSGTYVVFGGGTKLTVL
notes: One-chain scFv, His-tagged
For B3, the EC50 (read off the curve) [3] was 2 nM, the “KD improvement factor vs parental scFv Li3G30” value [4] was 10.8 fold and the Kd [4] was 0.72 nM. For the same binder, the “kOFF improvement factor vs parental scFv Li3G30” value [4] was 2 fold, the “kON improvement factor vs parental scFv Li3G30” value [4] was 5.2 fold and the koff [4] was 0.0006 s⁻¹. For the same binder, the kon [4] was 830000 M⁻¹ s⁻¹.

B4: TandAb EGFRvIII(ABC479)/CD3(v64) (bispecific antibody)
tandem diabody polypeptide (homodimer): DIQMTQSPSSLSASVGDRVTITCRSSTGAVTTSNYANWVQQKPGKAPKALIGGTNKRAPGVPSRFSGSLIGDKATLTISSLQPEDFATYYCALWYSNLWVFGQGTKVEIKQSGAEVKKPGEVQLVESLKISCKGSGYDFSSYWIGWVRQMPGKGLEWMGIIYPGDSDTIYSPSFQGQVTISADKSISTAYLQWSSLKASDTAMYYCARLGSSWTNDAFDIWGQGTLVTVSSSYELTQPPSVSVSPGQTARITCSGAALPEQYAYWYQQKPGQAPVLVIYKDSERPSGIPERFSGSSSGTTVTLTISGVQAEDEADYYCQSVDSSGTFYVFGGGTKLTVLEVQLVESGGGLVQPGGSLRLSCAASGFTFSTYAMNWVRQAPGKGLEWVGRIRSKYNNYATYYADSVKDRFTISRDDSKNSLYLQMNSLKTEDTAVYYCARHGNFGNSYVSYFAYWGQGTLVTVSS
notes: also called domain order (i) VL^CD3-VH^EGFRvIII-VL^EGFRvIII-VH^CD3
With B4 the “EC50 (read off the curve)” value [2] was ~4 nM.

B5: scFv 475 (scFv, V domains shown)
VH: B3 VH with N30T, G54D
VL: B3 VL with T26A, S51T, V92S
notes: One-chain scFv, His-tagged
In the case of B5, the “EC50 (read off the curve)” value [3] is reported as ~2 nM, the “KD improvement factor vs parental scFv Li3G30” value [4] is reported as 11.1 fold and the Kd [4] is reported as 0.7 nM. The “kOFF improvement factor vs parental scFv Li3G30” value [4] was 1.5 fold, the “kON improvement factor vs parental scFv Li3G30” value [4] was 7.5 fold and the koff [4] was 0.0008 s⁻¹. For the same binder, the kon [4] was 1.2e+06 M⁻¹ s⁻¹ and the binding result [5] was “no binding (tested: about 3300 nM)”.

B6: scFv 470 (scFv, V domains shown)
VH: B3 VH
VL: B3 VL with T26A, P28D, V92S, G94E
notes: One-chain scFv, His-tagged
For B6, the “EC50 (read off the curve)” value [3] was ~2 nM, the “KD improvement factor vs parental scFv Li3G30” value [4] was 6.6 fold and the Kd [4] was 1.18 nM. For the same binder, the “kOFF improvement factor vs parental scFv Li3G30” value [4] was 2.4 fold, the “kON improvement factor vs parental scFv Li3G30” value [4] was 2.7 fold and the koff [4] was 0.0005 s⁻¹. The kon [4] was 430000 M⁻¹ s⁻¹ and the binding result [5] was “no binding (tested: about 3300 nM)”.

B7: scFv 471 (scFv, V domains shown)
VH: B3 VH with D57A, T58N
VL: B3 VL with T26Y, S51T, V92S, G94H, T95P, Y96S
notes: One-chain scFv, His-tagged
For B7, the “EC50 (read off the curve)” value [3] was ~2 nM, the “KD improvement factor vs parental scFv Li3G30” value [4] was 29.9 fold and the Kd [4] was 0.26 nM. The “kOFF improvement factor vs parental scFv Li3G30” value [4] was 4.1 fold, the “kON improvement factor vs parental scFv Li3G30” value [4] was 6.9 fold and the koff [4] was 0.00029 s⁻¹. The kon [4] was 1.1e+06 M⁻¹ s⁻¹ and the binding result [5] was “no binding (tested: about 3300 nM)”.

B8: scFv 472 (scFv, V domains shown)
VH: B3 VH with N30G, S31Y, D57H
VL: B3 VL with T26A, S51T, V92S, Y96Q
notes: One-chain scFv, His-tagged
In the case of B8, the “EC50 (read off the curve)” value [3] is reported as ~1 nM, the “KD improvement factor vs parental scFv Li3G30” value [4] is reported as 96.3 fold and the Kd [4] is reported as 0.08 nM. The “kOFF improvement factor vs parental scFv Li3G30” value [4] was 4 fold, the “kON improvement factor vs parental scFv Li3G30” value [4] was 23.8 fold and the koff [4] was 0.0003 s⁻¹. For the same binder, the kon [4] was 3.8e+06 M⁻¹ s⁻¹ and the binding result [5] was “no binding (tested: about 3300 nM)”.

B9: scFv 473 (scFv, V domains shown)
VH: B3 VH with N30S
VL: B3 VL with D25H, T26A, K29S, S51T, V92S, Y96S, V98I
notes: One-chain scFv, His-tagged
In the case of B9, the “EC50 (read off the curve)” value [3] is reported as ~2 nM, the “KD improvement factor vs parental scFv Li3G30” value [4] is reported as 11.6 fold and the Kd [4] is reported as 0.67 nM. The “kOFF improvement factor vs parental scFv Li3G30” value [4] was 1.5 fold, the “kON improvement factor vs parental scFv Li3G30” value [4] was 7.5 fold and the koff [4] was 0.0008 s⁻¹. For the same binder, the kon [4] was 1.2e+06 M⁻¹ s⁻¹ and the binding result [5] was “no binding (tested: about 3300 nM)”.

B10: scFv 474 (scFv, V domains shown)
VH: B3 VH with N30S, S31H, I51T, S56V, S61D
VL: B3 VL with T26A, Q30T, S51T, V90A, V92S, V97L
notes: One-chain scFv, His-tagged
In the case of B10, the “EC50 (read off the curve)” value [3] is reported as ~2 nM, the “KD improvement factor vs parental scFv Li3G30” value [4] is reported as 16.3 fold and the Kd [4] is reported as 0.48 nM. The “kOFF improvement factor vs parental scFv Li3G30” value [4] was 0.8 fold, the “kON improvement factor vs parental scFv Li3G30” value [4] was 20.6 fold and the koff [4] was 0.0016 s⁻¹. The kon [4] was 3.3e+06 M⁻¹ s⁻¹ and the binding result [5] was “no binding (tested: about 3300 nM)”.

B11: scFv 476 (scFv, V domains shown)
VH: B3 VH with N30T
VL: B3 VL with T26N, L27I, K29H, S51T, S55A, V90A, V92P, S93T, T95A, V97L
notes: One-chain scFv, His-tagged
With B11 the “EC50 (read off the curve)” value [3] was ~2 nM, the “KD improvement factor vs parental scFv Li3G30” value [4] was 5 fold and the Kd [4] was 1.56 nM. For the same binder, the “kOFF improvement factor vs parental scFv Li3G30” value [4] was 1.1 fold, the “kON improvement factor vs parental scFv Li3G30” value [4] was 4.3 fold and the koff [4] was 0.0011 s⁻¹. For the same binder, the kon [4] was 690000 M⁻¹ s⁻¹ and the binding result [5] was “no binding (tested: about 3300 nM)”.

B12: scFv 477 (scFv, V domains shown)
VH: B3 VH with N30S
VL: B3 VL with T26Y, S51T, V90A, V92A, V97Y
notes: One-chain scFv, His-tagged
In the case of B12, the “EC50 (read off the curve)” value [3] is reported as ~2 nM, the “KD improvement factor vs parental scFv Li3G30” value [4] is reported as 6 fold and the Kd [4] is reported as 1.3 nM. For the same binder, the “kOFF improvement factor vs parental scFv Li3G30” value [4] was 0.3 fold, the “kON improvement factor vs parental scFv Li3G30” value [4] was 18.8 fold and the koff [4] was 0.0038 s⁻¹. The kon [4] was 3e+06 M⁻¹ s⁻¹ and the binding result [5] was “no binding (tested: about 3300 nM)”.

B13: scFv 478 (scFv, V domains shown)
VH: B3 VH with S56E
VL: B3 VL with T26A, S51T, V92P
notes: One-chain scFv, His-tagged
In the case of B13, the “EC50 (read off the curve)” value [3] is reported as ~2 nM, the “KD improvement factor vs parental scFv Li3G30” value [4] is reported as 49.6 fold and the Kd [4] is reported as 0.16 nM. The “kOFF improvement factor vs parental scFv Li3G30” value [4] was 5.2 fold, the “kON improvement factor vs parental scFv Li3G30” value [4] was 8.8 fold and the koff [4] was 0.00023 s⁻¹. The kon [4] was 1.4e+06 M⁻¹ s⁻¹ and the binding result [5] was “no binding”.

B14: scFv 479 (scFv, V domains shown)
VH: B3 VH with S28D, N30S, R59I
VL: B3 VL with D25A, T26A, K29E, V92S, Y96F, V97Y
notes: One-chain scFv, His-tagged
In the case of B14, the “KD improvement factor vs parental scFv Li3G30” value [4] is reported as 3.1 fold, the Kd [4] is reported as 2.54 nM and the “kOFF improvement factor vs parental scFv Li3G30” value [4] is reported as 1.3 fold. The “kON improvement factor vs parental scFv Li3G30” value [4] was 2.4 fold, the koff [4] was 0.00096 s⁻¹ and the kon [4] was 380000 M⁻¹ s⁻¹.

Reference: patent US20160152728A1 (AFFEMED, published 2016)
